The values that follow come from PMC3466776 (Biochemistry, 2012).

Common to all, as to experiment: stopped-flow fluorescence
For assay [1], the target named is N-lobe mutant of calmodulin (CaM12) (rat, UniProt P0DP29 1-149, D20 to alanine | D56 to alanine).
The target of assay [2] is wild-type calmodulin (His-CaM) (rat, UniProt P0DP29 1-149).
Assay [3] has as its target C-lobe mutant of calmodulin (CaM34) (rat, UniProt P0DP29 1-149, D93 to alanine | D129 to alanine).

No end group written: not given here.

B1: AC1-C1b peptide (peptide)
peptide: IKPAKRMKFKTVCYLLVQLMHCRKMFKA
modifications: C-terminal amide
On to B1, for which the binding result in assay [1] and in assay [2] was “binds” each time.

B2: AC8-Nt peptide (peptide)
peptide: GSRPQRLLWQTAVRHITEQRFIHGH-NH2
With B2, the binding result in assay [1] and in assay [2] was “binds” in each case.

B3: AC8-C2b peptide (peptide)
peptide: YSLAAVVLGLVQSLNRQRQKQLLNE-NH2
Regarding B3, the binding result in assay [3] and in assay [2] was “binds” throughout.
